Results reported in patent USRE47223 (Genentech, dated 2019).

T1: 5-domain TAT10772 (human)
T1 construct: Recombinant portion of the extracellular domain, expressed in CHO cells; also called 5-mucin domain
T1 chain: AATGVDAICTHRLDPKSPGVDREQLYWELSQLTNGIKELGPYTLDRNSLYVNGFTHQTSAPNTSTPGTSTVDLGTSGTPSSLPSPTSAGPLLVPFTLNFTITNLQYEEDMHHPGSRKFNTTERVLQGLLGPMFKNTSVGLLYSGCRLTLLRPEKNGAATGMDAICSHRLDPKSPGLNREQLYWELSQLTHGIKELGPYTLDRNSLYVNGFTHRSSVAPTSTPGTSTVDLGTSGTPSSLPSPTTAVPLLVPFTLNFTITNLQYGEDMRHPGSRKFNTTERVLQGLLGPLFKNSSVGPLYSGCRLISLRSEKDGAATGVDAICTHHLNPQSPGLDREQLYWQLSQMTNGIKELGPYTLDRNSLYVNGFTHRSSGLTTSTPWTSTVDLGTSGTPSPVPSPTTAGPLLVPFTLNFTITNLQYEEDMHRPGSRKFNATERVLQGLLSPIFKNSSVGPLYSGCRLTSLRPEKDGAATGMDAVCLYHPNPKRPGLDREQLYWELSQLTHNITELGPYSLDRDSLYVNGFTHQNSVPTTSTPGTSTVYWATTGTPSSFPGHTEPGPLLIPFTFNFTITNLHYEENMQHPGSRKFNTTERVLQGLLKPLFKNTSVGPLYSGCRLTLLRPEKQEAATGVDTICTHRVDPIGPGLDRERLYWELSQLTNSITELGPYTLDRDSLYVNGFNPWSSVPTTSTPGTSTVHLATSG


Assays:
[1] = biological target: T2, CA125, human TAT10772 shed antigen (human, UniProt Q8WXI7 1-14451, limits assumed); experiment: ELISA, IgG, CA125
T2 construct: domain: entire shed antigen; Bought reagent; also called CA125 polypeptide

[2] = biological target: T3, TAT10772 polypeptide (human); experiment: ELISA on OVCAR-3 cells, IgG
T3 construct: Cell-surface TAT10772 on engineered PC3 cells (PC3/A5.3B2), OVCAR-3, OVCA-432, SK-OV-3 cells and tumor tissue; also called TAT10772 target polypeptide

[3] = biological target: T1, 5-domain TAT10772; experiment: ELISA, IgG, 5′-domain TAT10772
[4] = biological target: T1, 5-domain TAT10772; experiment: Biacore SPR, 5′-domain TAT10772 over immobilized IgG
[5] = biological target: T3, TAT10772 polypeptide; experiment: Scatchard analysis, IgG; form of TAT10772 not stated
[6] = biological target: T3, TAT10772 polypeptide; experiment: Western blot, ELISA, FACS of TAT10772-expressing cells and/or immunohistochemistry

Row | Binder | Kd [1] [nM] | Kd [2] [nM] | Kd [3] [nM] | Kd [4] [nM] | koff [4] [s⁻¹] | kon [4] [M⁻¹ s⁻¹] | Kd [5] [nM] | binding result [6]
1 | 3A5v1 (SEQ ID NO: 198) (antibody, V domains shown, Humanized IgG) VH: EVQLVESGGGLVQPGGSLRLSCAASGYSITNDYAWNWVRQAPGKGLEWVGYINYSGYTTYNPSLKSRFTISRDTSKNTLYLQMNSLRAEDTAVYYCARWASGLDYWGQGTLVTVSS VL: DIQMTQSPSSLSASVGDRVTITCKASDLIHNWLAWYQQKPGKAPKLLIYGATSLETGVPSRFSGSGSGTDFTLTISSLQPEDFATYYCQQYWTTPFTFGQGTKVEIKR | 0.6 | 0.5 | 3 | 4.8 | 0.000178 | 36900 |  | 
2 | 3A5v6 (SEQ ID NO: 203) (antibody, V domains shown, Humanized IgG) VH: EVQLVESGGGLVQPGGSLRLSCAASGYSITNDYAWNWVRQAPGKGLEWVGYINYSGYTTYNPSLKSRFTISRDTSKNTFYLQMNSLRAEDTAVYYCARWDSGLTYWGQGTLVTVSS VL: DIQMTQSPSSLSASVGDRVTITCKASDLIHNWLAWYQQKPGKAPKLLIYGATSLETGVPSRFSGSGSGTDFTLTISSLQPEDFATYYCQQYWTTPFTFGQGTKVEIKR | 4.4 | 0.6 | 5.7 |  |  |  |  | 
3 | 3A5v1b 54 (SEQ ID NO: 207) (antibody, V domains shown, Humanized IgG, 3A5.v1 with the CDR-H2 glycosylation site removed at position 54) VH: EVQLVESGGGLVQPGGSLRLSCAASGYSITNDYAWNWVRQAPGKGLEWVGYINYAGYTTYNPSLKSRFTISRDTSKNTLYLQMNSLRAEDTAVYYCARWASGLDYWGQGTLVTVSS VL: DIQMTQSPSSLSASVGDRVTITCKASDLIHNWLAWYQQKPGKAPKLLIYGATSLETGVPSRFSGSGSGTDFTLTISSLQPEDFATYYCQQYWTTPFTFGQGTKVEIKR |  |  |  |  |  |  | 0.37 | 
4 | 3A5v2 (SEQ ID NO: 199) (antibody, V domains shown, Humanized IgG) VH: EVQLVESGGGLVQPGGSLRLSCAASGYSITNDYAWNWVRQAPGKGLEWVGYINYSGYTTYNPSLKSRFTISRDTSKNTFYLQMNSLRAEDTAVYYCARWASGLSHWGQGTLVTVSS VL: DIQMTQSPSSLSASVGDRVTITCKASDLIHNWLAWYQQKPGKAPKLLIYGATSLETGVPSRFSGSGSGTDFTLTISSLQPEDFATYYCQQYWTTPFTFGQGTKVEIKR | 0.8 | 0.7 | 3.7 | 3.6 | 0.000121 | 33400 |  | 
5 | 3A5v4 (SEQ ID NO: 201) (antibody, V domains shown, Humanized IgG) VH: EVQLVESGGGLVQPGGSLRLSCAASGYSITNDYAWNWVRQAPGKGLEWVGYINYSGYTTYNPSLKSRFTISRDTSKNTLYLQMNSLRAEDTAVYYCARWTSGLDYWGQGTLVTVSS VL: DIQMTQSPSSLSASVGDRVTITCKASDLIHNWLAWYQQKPGKAPKLLIYGATSLETGVPSRFSGSGSGTDFTLTISSLQPEDFATYYCQQYWTTPFTFGQGTKVEIKR | 0.3 | 0.8 | 2.4 |  |  |  |  | 
6 | 3A5.L-graft (SEQ ID NO: 12), IgG (antibody, V domains shown, IgG) VH: EVQLVESGGGLVQPGGSLRLSCAASGYSITNDYAWNWVRQAPGKGLEWVGYINYSGYTTYNPSLKSRFTISRDNSKNTLYLQMNSLRAEDTAVYYCARWDGGLTYWGQGTLVTVSS VL: DIQMTQSPSSLSASVGDRVTITCKASDLIHNWLAWYQQKPGKAPKLLIYGATSLETGVPSRFSGSGSGTDFTLTISSLQPEDFATYYCQQYWTTPFTFGQGTKVEIKR |  | 7.1 |  |  |  |  |  | 
7 | 3A5v1b 52 (SEQ ID NO: 206) (antibody, V domains shown, Humanized IgG, 3A5.v1 with the CDR-H2 glycosylation site removed at position 52) VH: EVQLVESGGGLVQPGGSLRLSCAASGYSITNDYAWNWVRQAPGKGLEWVGYISYSGYTTYNPSLKSRFTISRDTSKNTLYLQMNSLRAEDTAVYYCARWASGLDYWGQGTLVTVSS VL: DIQMTQSPSSLSASVGDRVTITCKASDLIHNWLAWYQQKPGKAPKLLIYGATSLETGVPSRFSGSGSGTDFTLTISSLQPEDFATYYCQQYWTTPFTFGQGTKVEIKR |  |  |  |  |  |  | 0.47 | 
8 | 3A5v7 (SEQ ID NO: 204) (antibody, V domains shown, Humanized IgG) VH: EVQLVESGGGLVQPGGSLRLSCAASGYSITNDYAWNWVRQAPGKGLEWVGYINYSGYTTYNPSLKSRFTISRDTSKNTLYLQMNSLRAEDTAVYYCARWKSGLDSWGQGTLVTVSS VL: DIQMTQSPSSLSASVGDRVTITCKASDLIHNWLAWYQQKPGKAPKLLIYGATSLETGVPSRFSGSGSGTDFTLTISSLQPEDFATYYCQQYWTTPFTFGQGTKVEIKR | 1.2 | 0.8 | 3.3 |  |  |  |  | 
9 | 3A5v4b 52 (SEQ ID NO: 208) (antibody, V domains shown, Humanized IgG, 3A5.v4 with the CDR-H2 glycosylation site removed at position 52) VH: EVQLVESGGGLVQPGGSLRLSCAASGYSITNDYAWNWVRQAPGKGLEWVGYISYSGYTTYNPSLKSRFTISRDTSKNTLYLQMNSLRAEDTAVYYCARWTSGLDYWGQGTLVTVSS VL: DIQMTQSPSSLSASVGDRVTITCKASDLIHNWLAWYQQKPGKAPKLLIYGATSLETGVPSRFSGSGSGTDFTLTISSLQPEDFATYYCQQYWTTPFTFGQGTKVEIKR |  |  |  |  |  |  | 0.46 | 
10 | murine 3A5 anti-TAT10772 antibody (antibody, V domains shown, Murine monoclonal antibody from hybridoma; also called monoclonal antibody 3A5; monoclonal antibody 3A5.3) VH: DVQLQESGPGLVNPSQSLSLTCTVTGYSITNDYAWNWIRQFPGNKLEWMGYINYSGYTTYNPSLKSRISITRDTSKNQFFLHLNSVTTEDTATYYCARWDGGLTYWGQGTLVTVSA VL: DIQMTQSSSFLSVSLGGRVTITCKASDLIHNWLAWYQQKPGNAPRLLISGATSLETGVPSRFSGSGSGNDYTLSIASLQTEDAATYYCQQYWTTPFTFGSGTKLEIK |  |  |  |  |  |  |  | binds

The remaining binders from weak to strong by Kd [2], led by results:

Row | Kd [1] [nM] | Kd [2] [nM] | Kd [3] [nM] | Kd [4] [nM] | koff [4] [s⁻¹] | kon [4] [M⁻¹ s⁻¹] | Kd [5] [nM] | binding result [6] | Binder
11 | 8.2 | 0.6 | 10.2 |  |  |  |  |  | 3A5v5 (SEQ ID NO: 202) (antibody, V domains shown, Humanized IgG) VH: EVQLVESGGGLVQPGGSLRLSCAASGYSITNDYAWNWVRQAPGKGLEWVGYINYSGYTTYNPSLKSRFTISRDTSKNTFYLQMNSLRAEDTAVYYCARWDAGLTYWGQGTLVTVSS VL: DIQMTQSPSSLSASVGDRVTITCKASDLIHNWLAWYQQKPGKAPKLLIYGATSLETGVPSRFSGSGSGTDFTLTISSLQPEDFATYYCQQYWTTPFTFGQGTKVEIKR
12 | 51.4 | 0.6 | 90.3 | 10 | 0.000292 | 28500 |  |  | 3A5.F-graft (SEQ ID NO: 13), IgG (antibody, V domains shown, IgG) VH: EVQLVESGGGLVQPGGSLRLSCAASGYSITNDYAWNWVRQAPGKGLEWVGYINYSGYTTYNPSLKSRFTISRDNSKNTFYLQMNSLRAEDTAVYYCARWDGGLTYWGQGTLVTVSS VL: DIQMTQSPSSLSASVGDRVTITCKASDLIHNWLAWYQQKPGKAPKLLIYGATSLETGVPSRFSGSGSGTDFTLTISSLQPEDFATYYCQQYWTTPFTFGQGTKVEIKR
13 | 0.4 | 0.5 | 2.6 | 2.3 | 0.000127 | 55100 |  |  | 3A5v8 (SEQ ID NO: 205) (antibody, V domains shown, Humanized IgG) VH: EVQLVESGGGLVQPGGSLRLSCAASGYSITNDYAWNWVRQAPGKGLEWVGYINYSGYTTYNPSLKSRFTISRDTSKNTLYLQMNSLRAEDTAVYYCARWTSGLDSWGQGTLVTVSS VL: DIQMTQSPSSLSASVGDRVTITCKASDLIHNWLAWYQQKPGKAPKLLIYGATSLETGVPSRFSGSGSGTDFTLTISSLQPEDFATYYCQQYWTTPFTFGQGTKVEIKR
14 | 0.3 | 0.3 | 2.3 | 2.7 | 0.000121 | 44800 | 0.57 |  | 3A5 chimera (mu3A5-H; SEQ ID NO: 11) (antibody, V domains shown, IgG; also called chimeric 3A5; chimeric antibody) VH: DVQLQESGPGLVNPSQSLSLTCTVTGYSITNDYAWNWIRQFPGNKLEWMGYINYSGYTTYNPSLKSRISITRDTSKNQFFLHLNSVTTEDTATYYCARWDGGLTYWGQGTLVTVSA VL: DIQMTQSPSSLSASVGDRVTITCKASDLIHNWLAWYQQKPGKAPKLLIYGATSLETGVPSRFSGSGSGTDFTLTISSLQPEDFATYYCQQYWTTPFTFGQGTKVEIKR
15 | 0.5 | 0.2 | 1.6 | 3.6 | 0.00013 | 36200 |  |  | 3A5v3 (SEQ ID NO: 200) (antibody, V domains shown, Humanized IgG) VH: EVQLVESGGGLVQPGGSLRLSCAASGYSITNDYAWNWVRQAPGKGLEWVGYINYSGYTTYNPSLKSRFTISRDTSKNTFYLQMNSLRAEDTAVYYCARWASGLSYWGQGTLVTVSS VL: DIQMTQSPSSLSASVGDRVTITCKASDLIHNWLAWYQQKPGKAPKLLIYGATSLETGVPSRFSGSGSGTDFTLTISSLQPEDFATYYCQQYWTTPFTFGQGTKVEIKR
